From patent publication US20250320281A1 come the findings set out here.

By IC50 is commonly meant the concentration at which inhibition is half-maximal. Low values mean higher potency, high ones lower potency.

Common to all, as to assay: cell-based or functional assay
Assay [1] addresses HIV-1 Env of isolate 94 KE 105 (subtype AC) (HIV-1).
Assay [2] deals with HIV-1 Env of isolate 92RW008 (subtype A) (HIV-1).
Assay [3] concerns the target HIV-1 Env of isolate 93WR029 (subtype A) (HIV-1).
Assay [4] deals with HIV-1 Env of isolate 92UG031 (subtype A) (HIV-1).
Assay [5] deals with HIV-1 Env of isolate 92WR020 (subtype A) (HIV-1).
For assay [6], the target named is HIV-1 envelope glycoprotein (Env) of isolate APV_13 (HIV-1).
In assay [7] the target is HIV-1 envelope glycoprotein (Env) of isolate MGRM-Chronic-B-004 (HIV-1).
For assay [8], the target named is HIV-1 Env of isolate MGRM-G-014 (HIV-1).
The target in assay [9] is HIV-1 envelope glycoprotein (Env) of isolate 93TH305 (HIV-1).
Assay [10] has as its target HIV-1 Env of isolate 92WR026 (subtype A) (HIV-1).
Assay [11] concerns the target HIV-1 Env of isolate 92WR021 (subtype A) (HIV-1).
For assay [12], the target named is HIV-1 envelope glycoprotein (Env) of isolate MGRM-Chronic-B-002 (HIV-1).
Assay [13] deals with HIV-1 envelope glycoprotein (Env) of isolate CAAN.A2 (HIV-1).
The target in assay [14] is HIV-1 envelope glycoprotein (Env) of isolate MGRM-Chronic-B-001 (HIV-1).
Assay [15] addresses HIV-1 envelope glycoprotein (Env) of isolate 92BR020 (HIV-1).
Assay [16] addresses HIV-1 Env of isolate 92WR024 (subtype A) (HIV-1).
For assay [17], the target named is HIV-1 Env of isolate 92WR009 (subtype A) (HIV-1).
Assay [18] has as its target HIV-1 envelope glycoprotein (Env) of isolate MGRM-Chronic-B-003 (HIV-1).
For assay [19], the target named is HIV-1 envelope glycoprotein (Env) of isolate 6535.3 (HIV-1).
Assay [20] deals with HIV-1 envelope glycoprotein (Env) of isolate APV_17 (HIV-1).
Assay [21] has as its target HIV-1 Env of isolate 94UG103 (subtype A) (HIV-1).
Assay [22] has as its target HIV-1 envelope glycoprotein (Env) of isolate APV_6 (HIV-1).
The target of assay [23] is HIV-1 Env of isolate 92UG037 (subtype A) (HIV-1).
Assay [24] addresses HIV-1 envelope glycoprotein (Env) of isolate JR-FL (HIV-1).
The target in assay [25] is HIV-1 JR-CSF Env on pseudotyped virus (HIV-1 isolate JR-CSF) (UniProt P20871).
Assay [26] concerns the target HIV-1 NL43 Env on pseudotyped virus (HIV-1 NL43).
In assay [27] the target is HIV-1 Env of isolate SC422661.8 (Acute), clade B, on pseudovirus (HIV-1).
The target in assay [28] is HIV-1 Env of pseudovirus MGRM-F1-013 (HIV-1).
Assay [29] has as its target HIV-1 92TH021 envelope glycoprotein (Env) on pseudovirus (HIV-1).
For assay [30], the target named is HIV-1 envelope glycoprotein (Env) of isolate MGRM-A-007, clade A (HIV-1).
For assay [31], the target named is HIV-1 93IN905 Env on pseudotyped virus (HIV-1 isolate 93IN905).
Assay [32] has as its target HIV-1 Env of pseudovirus 92TH021 (clade CRF01_AE) (HIV-1).
The target in assay [33] is HIV-1 Env of pseudovirus MGRM-G-009 (clade G) (HIV-1).
The target in assay [34] is HIV-1 94UG103 Env on pseudotyped virus (HIV-1 isolate 94UG103).
For assay [35], the target named is HIV-1 Env of pseudovirus MGRM-G-016 (HIV-1, clade G isolate MGRM-G-016).

Sequence of 4970_K22 (PGT-144) (antibody) (VH): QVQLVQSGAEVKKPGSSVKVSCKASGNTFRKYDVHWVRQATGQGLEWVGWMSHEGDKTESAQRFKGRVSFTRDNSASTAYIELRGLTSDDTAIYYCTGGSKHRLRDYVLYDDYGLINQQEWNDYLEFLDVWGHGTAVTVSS
Sequence of 4970_K22 (PGT-144) (antibody) (VL): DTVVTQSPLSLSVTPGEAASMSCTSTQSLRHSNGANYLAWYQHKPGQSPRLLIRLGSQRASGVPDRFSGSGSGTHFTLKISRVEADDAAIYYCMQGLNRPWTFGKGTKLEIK
Sequence of 4980_N08 (PGT-143) (antibody) (VH): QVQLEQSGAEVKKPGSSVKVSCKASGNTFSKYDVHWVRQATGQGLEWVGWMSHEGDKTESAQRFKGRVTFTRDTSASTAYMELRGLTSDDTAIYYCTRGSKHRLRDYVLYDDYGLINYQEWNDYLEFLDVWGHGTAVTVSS
Sequence of 4980_N08 (PGT-143) (antibody) (VL): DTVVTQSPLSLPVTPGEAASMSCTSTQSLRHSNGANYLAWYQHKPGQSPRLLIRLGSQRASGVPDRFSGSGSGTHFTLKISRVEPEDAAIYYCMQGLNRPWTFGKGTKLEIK
Sequence of 4995_E20 (PGT-142) (antibody) (VH): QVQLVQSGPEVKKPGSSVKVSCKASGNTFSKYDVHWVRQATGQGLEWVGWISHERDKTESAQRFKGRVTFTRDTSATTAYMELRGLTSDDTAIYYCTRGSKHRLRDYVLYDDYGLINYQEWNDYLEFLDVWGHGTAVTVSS
Sequence of 4995_E20 (PGT-142) (antibody) (VL): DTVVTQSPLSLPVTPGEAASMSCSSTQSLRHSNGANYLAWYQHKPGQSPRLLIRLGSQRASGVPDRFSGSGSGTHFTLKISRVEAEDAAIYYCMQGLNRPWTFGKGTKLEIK
Sequence of 4993_K13 (PGT-141) (antibody) (VH): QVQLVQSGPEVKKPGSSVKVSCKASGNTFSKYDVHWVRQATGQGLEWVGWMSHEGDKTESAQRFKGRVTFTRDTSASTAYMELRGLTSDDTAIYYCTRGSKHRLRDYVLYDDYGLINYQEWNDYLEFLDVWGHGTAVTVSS

For the substance 4970_K22 (PGT-144) (antibody), the IC50 (µg/mL), pseudovirus neutralization was 0.29 µg/mL in assay [1]; more than 50 µg/mL in [2]; 4.39 µg/mL in assay [3]; 2.17 µg/mL in assay [4]; more than 50 µg/mL in assay [5]; more than 50 µg/mL in assay [6]. The IC50 (µg/mL), pseudovirus neutralization was 9.41 µg/mL in [7]; 0.562 µg/mL in assay [8]; more than 50 µg/mL in [9]; 32.7 µg/mL in [10]; more than 50 µg/mL in [11]; more than 50 µg/mL in assay [12]. The IC50 (µg/mL), pseudovirus neutralization was more than 50 µg/mL in assay [13]; more than 50 µg/mL in assay [14]; 44 µg/mL in [15]; 16.3 µg/mL in assay [16]; 0.893 µg/mL in assay [17]; 7.41 µg/mL in [18]. Further, the IC50 (µg/mL), pseudovirus neutralization in assay [19] was more than 50 µg/mL; in assay [20], 10.3 µg/mL; in assay [21], more than 50 µg/mL; in [22], more than 50 µg/mL; in [23], 8.24 µg/mL; in [24] it was more than 50 µg/mL.

Take 4980_N08 (PGT-143) (antibody): the IC50 (µg/mL), pseudovirus neutralization is 0.368 µg/mL in assay [1]; 0.385 µg/mL in assay [2]; 0.053 µg/mL in assay [3]; 0.095 µg/mL in [4]; more than 50 µg/mL in assay [5]; more than 50 µg/mL in [6]. Moreover, the IC50 (µg/mL), pseudovirus neutralization in [7] was 0.395 µg/mL; in [8] it was 0.107 µg/mL; in [9] it was 17.3 µg/mL; in assay [10], 5.36 µg/mL; in [11], more than 50 µg/mL; in [12], more than 50 µg/mL. Further, the IC50 (µg/mL), pseudovirus neutralization was more than 50 µg/mL in [13]; more than 50 µg/mL in assay [14]; 25.9 µg/mL in assay [15]; 0.122 µg/mL in assay [16]; 0.01 µg/mL in assay [17]; 0.854 µg/mL in assay [18]. Further, the IC50 (µg/mL), pseudovirus neutralization was more than 50 µg/mL in [19]; 1.11 µg/mL in assay [20]; more than 50 µg/mL in [21]; 14 µg/mL in [22]; 0.854 µg/mL in assay [23]; more than 50 µg/mL in assay [24].

As for 4995_E20 (PGT-142) (antibody), the IC50 (µg/mL), pseudovirus neutralization in assay [1] was 0.19 µg/mL; in assay [2], 0.447 µg/mL; in assay [3] it was 0.014 µg/mL; in assay [4], 0.05 µg/mL; in assay [5], 31.5 µg/mL; in [6] it was more than 50 µg/mL. Also, the IC50 (µg/mL), pseudovirus neutralization in assay [7] was 0.172 µg/mL; in assay [8], 0.076 µg/mL; in assay [9] it was 5.86 µg/mL; in assay [10], 1.78 µg/mL; in assay [11], more than 50 µg/mL; in [12], more than 50 µg/mL. Further, the IC50 (µg/mL), pseudovirus neutralization in assay [13] was more than 50 µg/mL; in assay [14], more than 50 µg/mL; in assay [15] it was 15.1 µg/mL; in [16], 0.069 µg/mL; in assay [17] it was 0.006 µg/mL; in assay [18], 0.484 µg/mL. Further, the IC50 (µg/mL), pseudovirus neutralization is more than 50 µg/mL in assay [19]; 0.628 µg/mL in assay [20]; more than 50 µg/mL in [21]; 4.72 µg/mL in assay [22]; 0.557 µg/mL in [23]; more than 50 µg/mL in assay [24].

Regarding 4993_K13 (PGT-141) (antibody), the IC50 (µg/mL), pseudovirus neutralization in assay [1] was 0.204 µg/mL; in assay [2], 0.579 µg/mL; in assay [3], 0.019 µg/mL; in assay [4] it was 0.093 µg/mL; in assay [5], more than 50 µg/mL; in [6], more than 50 µg/mL. The IC50 (µg/mL), pseudovirus neutralization in assay [7] is 0.586 µg/mL; in assay [8] it was 0.222 µg/mL; in [9], more than 50 µg/mL; in assay [10], 1.78 µg/mL; in assay [11], more than 50 µg/mL; in assay [12], more than 50 µg/mL. Moreover, the IC50 (µg/mL), pseudovirus neutralization is more than 50 µg/mL in [13]; more than 50 µg/mL in assay [14]; 20.3 µg/mL in assay [15]; 0.175 µg/mL in assay [16]; 0.022 µg/mL in [17]; 0.4 µg/mL in assay [18]. For the same substance, the IC50 (µg/mL), pseudovirus neutralization in assay [19] is more than 50 µg/mL; in assay [20], 0.59 µg/mL; in assay [21] it was more than 50 µg/mL; in assay [22] it was 14.2 µg/mL; in assay [23], 1.28 µg/mL; in assay [24], more than 50 µg/mL.

In the case of 1496_C09 (PG9) (TCN-109) (antibody), the Neutralizing Antibody Assay: IC50; Virus/Ab Incubation 1 hour in assay [25] was less than 0.0025 µg/mL; in [26], 0.294 µg/mL; in assay [31], 0.144 µg/mL; in [34], 0.334 µg/mL. Further, the Neutralizing Antibody Assay: IC50; Virus/Ab Incubation 18 hour in [25] was less than 0.0025 µg/mL; in assay [26], 38 µg/mL; in [31], 0.0619 µg/mL; in assay [34] it was 0.0942 µg/mL. The IC50 (µg/ml), pseudovirus neutralization in assay [27] was 0.79 µg/mL; in [28], 0.56 µg/mL; in assay [30], 0.37 µg/mL; in assay [35], 0.4 µg/mL. In addition, the IC50, pseudovirus neutralization in [29] stood at 0.111 µg/mL. Besides, the IC50 (µg/mL), pseudovirus neutralization in [8] was determined as 16.5 µg/mL. The IC50 is 0.09 µg/mL in assay [32] and 4.9 µg/mL in assay [33].

Turning to 1495_C14 (PGC14) (antibody), the Neutralizing Antibody Assay: IC50; Virus/Ab Incubation 1 hour in assay [25] is more than 50 µg/mL; in assay [26], 0.35 µg/mL; in assay [31], more than 50 µg/mL; in assay [34] it was more than 50 µg/mL. The Neutralizing Antibody Assay: IC50; Virus/Ab Incubation 18 hour is more than 50 µg/mL in assay [25], 0.15 µg/mL in assay [26], 0.146 µg/mL in assay [31] and more than 50 µg/mL in [34]. In addition, the IC50 (µg/ml), pseudovirus neutralization is more than 50 µg/mL in assay [27], 6 µg/mL in [28], more than 50 µg/mL in [30] and more than 50 µg/mL in assay [35]. The IC50, pseudovirus neutralization in assay [29] was more than 50 µg/mL. The IC50 in assay [32] and in [33] was more than 50 µg/mL in each case.
